1 molecule from WO2005054294A2 (dated 2005) can be followed below.

This test has as its target T1, human platelet glycoprotein VI (human, UniProt Q9HCN6 21-339).
T1 sequence (looked up): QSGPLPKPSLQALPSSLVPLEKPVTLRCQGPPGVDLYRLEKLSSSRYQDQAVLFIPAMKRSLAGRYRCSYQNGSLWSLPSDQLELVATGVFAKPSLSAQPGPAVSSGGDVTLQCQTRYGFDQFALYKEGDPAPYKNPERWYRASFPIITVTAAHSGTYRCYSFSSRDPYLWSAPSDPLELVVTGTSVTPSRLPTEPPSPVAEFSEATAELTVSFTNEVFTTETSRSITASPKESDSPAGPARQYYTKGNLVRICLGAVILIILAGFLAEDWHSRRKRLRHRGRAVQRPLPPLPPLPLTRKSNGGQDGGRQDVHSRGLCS
Briefly: cell-based or functional assay.

B1: hGP 5C4 Fab (Fab, V domains shown)
VH: EVKLQESGGGLVQPGRSLKLSCTASGFTFSDYFMSWVRQAPTRGLEWVASISSGGASAYWRDSVKGRFTISRDNAKSALYLQMDSLRSEDTATYFCARGELDFDYWGQGVMVAVSS
VL: ADPNSTLLSASVGDRVTLNCTASQNVYKNLAWYQQKLGEAPRLLLYSANSQTGIPSRFSGSGSGPDFTLTISSLQPEDVASYFCQQYYSGNTFGAGTKLELKR
B1: the “IC50 of inhibition of collagen-induced (3 ug/ml) human platelet aggregation ex vivo” value was 0.12 µg/mL.
